# According to the RNAGym collection of RNA variant scans (doi:10.1073/pnas.2313332121):
# Fewer inactive variants are shown than the library holds.
# B1: TPR 5TU (parent)
# chain: GGAUCUUCUCGAUCUAACAAAAAAGACAAAUCUGCCACAAAGCUUGAGAGCAUCUUCGGAUGCAGAGGCGGCAGCCUUCGGUGGCGCGAUAGCGCCAACGUUCUCAACUAUGACACGCAAAACGCGUGCUCCGUUGAAUGGAGUUUAUCAUG
# Variants of: B1
# Experiment: polymerase ribozyme fitness, log enrichment relative to wild type (log ratio); higher = more active; in vitro selection for triplet polymerase activity
# In short: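 After PCR construction and transcription, each subunit's mutant library from a heterodimeric triplet polymerase ribozyme was annealed with a biotinylated primer, the partner subunit and triplets. Incubation was frozen, at −7 °C, and extended constructs were gel-excised, bound to streptavidin beads and amplified by RT-PCR, in one selection round done in triplicate. Fitness is the logarithm of a genotype's enrichment divided by that of the wild type, from inverse-variance-weighted replicate averages of Illumina-sequenced inputs and outputs. The base of the logarithm is 2, and genotypes needed ≥10 input reads and ≥1 read per output.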
row,Variant,polymerase ribozyme fitness (log ratio)
1,A22U C27G G50C G58C A97G C103G A110U U139A,≤ -4.2
2,A22U G50U C96G,0.467
3,A22C U56A C57U U104G U135C,-3.35
4,A22U A52G C75U G83U U134C A142C,-3.51
5,A22C A29C G68A G81A C85A C105G A142U,≤ -4.2
6,A22G U31C G94C,0.086
7,A22C A26U C43U C76A C93G C118G,≤ -4.2
8,A22U U55G A73C G86A C116A A142U,≤ -4.2
9,A22U C27U G86U,-3.28
10,A22C C27G C99U A106U G140U A147G,≤ -4.2
11,A22U A26C A47C C57A G62A G86A A89U A106U C108G,≤ -4.2
12,A22U A24G U31A U56G C79U U90G C95U A97C A120U C125G,≤ -4.2
13,A22U C54A A91G,-3.53
14,A22G C51U G83A,0.818
15,A22U G50U,1.37
16,A22U G50C,-2.99
17,A22U A150C,-2.85
18,A22G C35U C93G A142C A150G,≤ -4.2
19,A22U C85U,-0.371
20,A22C C27G A66U U145C,≤ -4.2
21,A22C C57A C118U,-1.03

row,Variant,polymerase ribozyme fitness (log ratio)
1,A22C G42U A73U G81C A91U C96U A107G G143C,≤ -4.2
2,A22U A52U U78A C85U U127A A137C,≤ -4.2
3,A22U C38U C51U U53A C54A C85G,≤ -4.2
4,A22U A30G C85G U104A C105A U111G,≤ -4.2
5,A22C A28U G62A G65C U90A C99U C108U C116G,≤ -4.2
6,A23C A39G C63U U104C C108G U135C,≤ -4.2
7,A22U G86U,-1.05
8,A23C A40U C95U U134A U151A,≤ -4.2
9,A22U A24U U44A C93A C96U C118U,≤ -4.2
10,A22C G92C C114U A150C,≤ -4.2
11,A22G A28U A29G A37C G48A A64C C85G C99U C125A A137G,≤ -4.2
12,A22G A23U U53G C57A G84U C114U C129U,≤ -4.2
13,A22U U82G C93A G124U C125U,-2.61
14,A22U G86A G92U,-1.74
15,A22C G62U A73U G88U C99U C118A U144C,≤ -4.2
16,A23C A40C G83U U102A U145A,≤ -4.2
17,A22C C51A C93G A98C C116U U135C,≤ -4.2
18,A22C C96A A97U U101C,-1.53
19,A22C G48U A60G,0.164
20,A22U A39U U44G C51A G141C U146C A150G,≤ -4.2
21,A22G C57U G70A A91C,≤ -4.2

row,Variant,polymerase ribozyme fitness (log ratio)
1,A22U A52C G58C G84U C99A,≤ -4.2
2,A22U C36U U78C U146C,-3.63
3,A22U C57U G70A G81C G83C G100C A106C G133C,≤ -4.2
4,A22C G42C C69G A91U,≤ -4.2
5,A22U C63U,0.542
6,A22U C35U U55A G59A G65A C85U C105A,≤ -4.2
7,A22G G65A A97U,-2.68
8,A22C A40U C54U G94A,-0.982
9,A22U G25C G48C A122U,≤ -4.2
10,A22C G92C U109C U148A,-4.16
11,A22C C32U C85G C95A G100A G112C,≤ -4.2
12,A22U G50U C96A G136C A142G,≤ -4.2
13,A23C A26U U53A C85A G136U,≤ -4.2
14,A22C A39G U144C,-4.03
15,A22U G140A,-2.83
16,A22U A23C,-4
17,A22C C85A A137G,-2.49
18,A22C A52G A106C C118U A142G,-3.06
19,A22U A29G C35G U44G C57U C114A,≤ -4.2
20,A22U C38A G59A C85U C95A,-0.962
21,A22G C85U G133C,-1.48

row,Variant,polymerase ribozyme fitness (log ratio)
1,A22G C54U,0.651
2,A22U C35A U55A U56G G74A C85G,≤ -4.2
3,A22U C57G C93G U151G,≤ -4.2
4,A22U A30U C95U U134A,≤ -4.2
5,A23C A47G C96A,≤ -4.2
6,A22C G86U C131A,≤ -4.2
7,A22U G143C,-1.09
8,A22G U44A C85A,≤ -4.2
9,A22G C32U A120G C125U,-3.24
10,A22C C36U C51A C75G C87U,≤ -4.2
11,A22U G84U,-1.67
12,A22C G46A G59C A91C C99G U101G C116G A138C,≤ -4.2
13,A22U A41C G70C U82G,≤ -4.2
14,A22C A121U,-0.324
15,A22G U53C U82G A98U,0.397
16,A22U C95U C103G,-1.55
17,A22U G80A,0.375
18,A22C G42U A49G C51U G92A U130G,≤ -4.2
19,A21U U82G C93G,-3.69
20,A22C G84C G133U,≤ -4.2
21,A22U A24C A40U U55A C85A G117C G136U A138C,≤ -4.2
